B1: IgG1-024 (antibody, V domains shown)
VH: EVQLLESGGGLVQPGGSLRLSCVASGFTFSSYAMSWVRQAPGKGLEWVSAISGSSGGSTYYVDSVKGRFTISRANSKNTLYLQMNSLRAEDTAVYYCAKDLDRGWMGYFGYWGQGTLVTVSS
VL: DIQMTQSPSSVSASVGDRVTITCRASQGISSWLAWYQHKPGKAPKLLIYAASSLQSGVPSRFSGSGSGTDFTLTISSLQPEDFATYYCQQANSFPTFGQGTRLEIK
notes: also called TH1016-024; PC1016-024
B2: anti-c-Met HuMab 045 (IgG1) (antibody, V domains shown)
VH: EVQLLESGGGLVQPGGSLRLSCAASGFTFSSYAMSWVRQAPGKGLEWVSVISGSGGITYYADSVKGRFTISRDNSKNTLYLQMNSLRAEDTAVYYCARDRGWGSDYWGQGTLVTVSS
VL: EIVLTQSPATLSLSPGERATLSCRASQSVSSYLAWYQQKPGQAPRLLIYDASNRATGIPARFSGSGSGTDFTLTISSLEPEDFAVYYCQQRSNWPFTFGPGTKVDIK
notes: also called TH1016-045; PC1016-045
B3: anti-c-Met HuMab 005 (IgG1) (antibody, V domains shown)
VH: QVQLVQSGAEVKKPGSSVKVSCKASGGTFSSYGFGWVRQAPGQGLEWMGRISPILGIANYAQMFQGRVTITADKSTSTAYMELSSLRSEDTAVYYCARDVGYDWPDTFDIWGQGTMVIVSS
VL: DIQMTQSPSSLSASVGDRVTITCRASQGISSWLAWYQQKPEKAPKSLIYAASSLQSGVPSRFSGGGSGTDFTLTISSLQPEDFATYYCQQYNSFPPTFGQGTKVEIK
notes: also called TH1016-005; PC1016-005
B4: IgG1-1016-022 (antibody, V domains shown)
VH: QVQLVESGGGVVQPGRSLRLSCAASGFTFSSYAMHWVRQAPGKGLEWVAVISYDGSNKYYADSVKGRFTISRDNSKNTLYLQMNSLRAEDTAVYYCARELLWFGELWGYFDLWGRGTLVTVSS
VL: DIQMTQSPSSVSASVGDRVTITCRASQGISSWLAWYQHKPGKAPKLLIYAASSLQSGVPSRFSGSGSGTDFTLTISSLQPEDFATYYCQEASSFTWTFGQGTKVEIK
notes: also called TH1016-022; PC1016-022
B5: anti-c-Met HuMab 006 (IgG1) (antibody, V domains shown)
VH: QVQLVQSGAEVKKPGSSVKVSCKASGGTFSSFGIGWVRQAPGQGLEWMGRIFPILGTANYAQMFQGRVTITADKSTSTAYMELTSLRSEDTAVYYCARDVGYDSADAFDIWGQGTMVTVSS
VL: DIQMTQSPSSLSASVGDRVTITCRASQGISSWLAWYQQKPEKAPKSLIYAASSLQSGVPSRFSGSGSGTDFTLTISSLQPEDFATYYCQQYNSYPPTFGQGTKVEIK
notes: also called TH1016-006; PC1016-006
B6: IgG1-1016-069 (antibody, V domains shown)
VH: QVQLVQSGAEVKKPGASVKVSCETSGYTFTSYGISWVRQAPGHGLEWMGWISAYNGYTNYAQKLQGRVTMTTDTSTSTAYMELRSLRSDDTAVYYCARDLRGTNYFDYWGQGTLVTVSS
VL: DIQMTQSPSSVSASVGDRVTITCRASQGISNWLAWFQHKPGKAPKLLIYAASSLLSGVPSRFSGSGSGTDFTLTISSLQPEDFATYYCQQANSFPITFGQGTRLEIK
notes: also called clone 069; TH1016-069
B7: anti-c-Met HuMab 181 (IgG1) (antibody, V domains shown)
VH: QVQLVQSGAEVKKPGASVKVSCKASGYTFTSYGISWVRQAPGQGLEWMGWISTYNGYTNYAQKLQGRVTMTTDTSTSTAYMELRSLRSDDTAVYYCARDLRGTAYFDYWGQGTLVTVSS
VL: DIQMTQSPSSVSASVGDRVTITCRASQGISNWLAWYQHKPGKAPKLLIYAASSLLSGVPSRFSGSGSGTDFTLTISSLQPEDFATYYCQQANSFPITFGQGTRLEIK
notes: also called TH1016-181; PC1016-181
B8: anti-c-Met HuMab 008 (IgG1) (antibody, V domains shown)
VH: EVQLVQSGAEVKKPGESLKISCKGSGYSFTSYWIGWVRQMPGKGLEWMGIIYPGDSETRYSPSFQGQVTISADKSISTAYLQWSSLKASDTAMYYCARQEITGEFDYWGQGTLVTVSS
VL: AIQLTQSPSSLSASVGDRVTITCRASQGISSALAWYQQKPGKAPKLLIYDASSLESGVPSRFSGSGSGTDFTLTISSLQPEDFATYYCQQFNSYPRTFGQGTKVEIK
notes: also called TH1016-008; PC1016-008
B9: anti-c-Met HuMab 035 (IgG1) (antibody, V domains shown)
VH: EVQLVQSGAEVKKPGESLKISCKGSGYSFTSYWIGWVRQMPGKGLEWMGIIYPGDSDTRYSPSFQGQVTISADKSISTAYLQWNSLKASDTAMYYCARQEITGEFDYWGQGTLVTVSS
VL: AIQLTQSPSSLSASVGDRVTITCRASQGISSALAWYQQKPGKAPKLLIYDASSLESGVPSRFSGSGSGTDFTLTISSLQPEDFATYYCQQFNSYPMYTFGQGTKLEIK
notes: also called P1016-035; TH1016-035-D09
B10: IgG1-1016-058 (antibody, V domains shown)
VH: EVQLVESGGGLVKPGGSLKLSCAASGFTFSDYYMYWVRQTPEKRLEWVATISDDGSYTYYPDSVKGRFTISRDNAKNNLYLQMSSLKSEDTAMYYCAREGLYYYGSGSYYNQDYWGQGTLVTVSS
VL: AIQLTQSPSSLSASVGDRVTITCRASQGLSSALAWYRQKPGKAPKLLIYDASSLESGVPSRFSGSGSGTDFTLTISSLQPEDFATYYCQQFTSYPQITFGQGTRLEIK
notes: also called IgG1-058; TH1016-058

Columns and labels:
[1] = target: T1, recombinant human c-Met extracellular domain (R&D systems) (human, UniProt P08581 25-932); test: competition ELISA on coated recombinant c-Met extracellular domain; blocked ligand Europium-conjugated HGF; column headed EC50 on the sheet, called IC50 in paragraph 270; upper panel
T1 construct: extracellular domain; Bought reagent; also called coated extracellular domain of c-Met; recombinant c-Met
Experimental: (§1) ELISA wells were coated overnight at 4° C. with 0.5 μg/mL recombinant human c-Met extracellular domain (R&D systems, Minneapolis, USA) diluted in PBS. Next, the ELISA wells were washed with PBST (PBS supplemented with 0.05% Tween-20 [Sigma-Aldrich, Zwijndrecht, The Netherlands]) and blocked for one hour at room temperature (RT) with PBST supplemented with 2% (v/v) chicken serum (Gibco, Paisley, Scotland). […] Mean fluorescence intensity at 615 nm was measured using the EnVision 2101 Multilabel reader (PerkinElmer) applying the following settings: Lance/Delfia dual mirror, emission filter 615, excitation filter 340 nm, delay time 400 μs, window 400 μs, 100 flashes, 2000 μs per cycle and bidirectional row-by-row reading. To determine IC₅₀ values, the binding curves were analyzed with non-linear regression (sigmoidal dose-response with variable slope, top-values constrained to a shared value for all data-sets) using GraphPad Prism V4.03 software (GraphPad Software, San Diego, Calif., USA).
(§2) FIG. 5 depicts representative examples of HGF binding inhibition curves of anti-c-Met antibodies for binding to the extracellular domain of recombinant human c-Met. 5D5 was used as positive control antibody. All anti-c-Met antibodies in the experiment shown were able to compete with Europium^{3±}-conjugated HGF for binding to recombinant c-Met. […] Without adding Europium³⁺-conjugated HGF, roughly ˜600 relative fluorescent units (RFU) were detected, indicating the signal when maximal inhibition is accomplished. When binding of Europium³⁺-conjugated HGF was not inhibited, approximately ˜66,000 RFU were detected.

[2] = target: T2, cMetSEMA-567His8 (human, UniProt P08581 25-567, limits assumed); test: TR-FRET; displacement of AlexaFluor-647-HGF from cMetSEMA-567His8
T2 construct: In the TR-FRET assay detected by anti-6xhis Europium3+; also called cMetSEMAHis; SEMA domain of c-Met; not shown: C-terminal His tag; the text says His9, the construct name says His8
Experimental: Therefore, the interaction of anti-c-Met antibodies with the SEMA domain of the c-Met receptor was studied using TR-FRET technology. […] The mean fluorescent intensity at 665 nm was measured on the EnVision 2101 Multilabel reader (PerkinElmer).
A 4-fold serial dilution of unlabeled anti-c-Met antibody ranging from 0.49-8000 ng/mL was tested. After overnight incubation at 4° C. in the dark, mean fluorescence intensity at 665 nm was measured using the EnVision 2101 Multilabel reader applying the following settings: Lance/Delfia dual mirror, emission filter 615-665 nm, excitation filter 320 nm, delay time 60 μs, window 100 μs, 100 flashes, 2000 μs per cycle and bidirectional row-by-row reading. To determine IC₅₀ values, the binding curves were analyzed with non-linear regression (sigmoidal dose-response with variable slope) using GraphPad Prism V4.03 software (GraphPad Software, San Diego, Calif., USA).

[3] = target: T1, recombinant human c-Met extracellular …; test: competition ELISA, residual Europium-HGF signal at 615 nm at the lower plateau of the fit; sheet prints no competing mAb ~66000, no HGF-Europium ~600; upper panel
Experimental: as §1, §2

[4] = target: T3, cMetECDHis (human, UniProt P08581 25-932, limits assumed, biotinylated in the cross-block ELISA of Example 17); test: cross-block ELISA; competitor 181
T3 construct: Expressed in HEK-293F cells; also called soluble cMetECDHis; biotinylated cMetECDHis
Experimental: First, the optimal coating concentrations of the tested anti-c-Met antibodies and the optimal cMetECDHis concentration were determined. Therefore, ELISA wells were coated overnight at 4° C. with anti-c-Met HuMabs serially diluted in PBS (8 μg/mL in 2-fold dilutions). Next, the ELISA wells were washed with PBST (PBS supplemented with 0.05% Tween-20 [Sigma-Aldrich, Zwijndrecht, The Netherlands]) and blocked for one hour at room temperature (RT) with PBSTC (PBST supplemented 2% [v/v] chicken serum [Gibco, Paisley, Scotland]). Subsequently, the ELISA wells were washed with PBST and incubated for one hour at RT with biotinylated cMetECDHis serially diluted in PBSTC (1 μg/mL in 2-fold dilutions). Unbound biotinylated cMetECDHis was washed away with PBST, and bound biotinylated cMetECDHis was incubated for one hour at RT with 0.1 μg/mL Streptavidin-poly-HRP (Sanquin, Amsterdam, The Netherlands) diluted in PBST.
ELISA wells were coated with anti-c-Met antibody at a sub-optimal dose as described above. After blocking of the ELISA wells, they were incubated with the predetermined concentration of biotinylated cMetECDHis in the presence of an excess of anti-c-Met antibody. The reaction was developed as described above. Residual binding was expressed as a percentage relative to the binding observed in the absence of competitor antibody.

[5] = target: T1, recombinant human c-Met extracellular …; test: competition ELISA, residual Europium-HGF signal at 615 nm at the lower plateau of the fit; sheet prints no competing mAb ~66000, no HGF-Europium ~600; lower panel
Experimental: as §1, §2

Row | Binder | IC50 [1] [µg/mL] | % inhibition [2] [%] | IC50 [2] [µg/mL] | Bottom [3] [RFU] | residual binding, % of no competitor [4] [%] | Bottom [5] [RFU]
1 | B1 | 0.0168 | 95 | 0.39 | 13100 | 7.1 | 
2 | B2 | 0.0165 | 92 | 0.17 | 12600 | 99.4 | 
3 | B3 | 0.0362 | 92 | 0.16 | 6940 | 131 | 
4 | B4 | 0.00927 | 77 | 0.37 | 18200 | 107 | 
5 | B5 | 0.0799 | 92 | 0.16 | 5630 | 124 | 
6 | B6 |  | 97 | 0.54 |  | 6.3 | 15000
7 | B7 |  | 93 | 0.34 |  | 3.6 | 16300
8 | B8 | 0.00788 |  |  | 30100 | 111 | 
9 | B9 | 0.0348 |  |  | 23300 | 159 | 
10 | B10 | 0.00727 | 99 | 0.15 | 5200 | 121 | 

Reference: patent US20150329642A1 (Genmab, published 2015)
